Assay [1] has as its target T1, soluble complex of the extracellular domain of human GARP and human LAP-TGFβ1 (human, UniProt Q14392 20-627).
T1 construct: extracellular domain; also called sGARP-LAP-TGFβ1; sGARP-LAP
Nature of the assay: BLI, component 1. As for the experimental part:
A streptavidin-functionalized tip was equilibrated in binding buffer (10 mM sodium phosphate, 150 mM sodium chloride, 1% (w/v) bovine serum albumin, 0.05% (w/v) sodium azide, pH 7.4) and dipped in a 5 μg/mL solution of biotinylated antibody (i.e., 20E6_H0.2aL1_hIgG1, murine 16F4, or MHG8, a GARP-specific murine IgG2a described in Lienart et al. Science 2018; 362:952-956) in binding buffer for 30 seconds to load the tip with antibody. The antibody-loaded tip was then washed in binding buffer and placed in a solution containing 0-24 nM of a fusion protein containing a human IgG1 Fc domain fused to either human LAP-TGFβ1, the soluble GARP-LAP-TGFβ1 complex, or the soluble ECR3E-LAP-TGFβ1 complex. The antigen was allowed to bind to antibody for 5 minutes (association phase), and then the tip was moved to binding buffer (dissociation phase). The binding and dissociation data for 16F4 and MHG8 were well-fit by a 1:1 binding model. The association and dissociation phases for 20E6_H0.2aL1_hIgG1 antibody were fit to a 2:1 heterogenous ligand binding model to determine the binding rate constants.
As shown in FIG. 24 and Table 21, the 20E6_H0.2aL1_hIgG1 antibody bound to free LAP-TGFβ1 and the soluble GARP-LAP-TGFβ1 complex with nanomolar affinity, but not to the ECR3E-LAP-TGFβ1 complex. As expected, the anti-GARP antibody (MHG8) bound to the GARP-LAP-TGFβ1 complex, but not to free LAP-TGFβ1 or the ECR3E-LAP-TGFβ1 complex. 16F4 bound tightly to all three constructs.
On the technique in general: Biolayer interferometry detects binding as a change in optical thickness at a sensor tip.

Assay [2] concerns the target T2, fusion protein of a human IgG1 Fc domain and cynomolgus monkey LAP-TGFβ1 (human; cynomolgus monkey).
T2 construct: also called cynomolgus monkey LAP-TGFβ-Fc
Nature of the assay: BLI, 2:1 model, component 2. How it is done:
The 20E6_H0.2aL1_IgG1 antibody was biotinylated using EZ-Link SulfoNHS-LC-Biotin (ThermoFisher). A streptavidin-functionalized tip was equilibrated in binding buffer (10 mM sodium phosphate, 150 mM sodium chloride, 1% (w/v) bovine serum albumin, 0.05% (w/v) sodium azide, pH 7.4) and dipped in a 10 μg/mL solution of biotinylated anti-LAP in binding buffer for 30 seconds to load the tip with antibody. The antibody-loaded tip was then washed in binding buffer and placed in a solution containing 0-24 nM of a fusion protein having a human IgG1 Fc domain fused to either human LAP-TGFβ1, human LAP-TGFβ2 or human LAP-TGFβ3. The antigen was allowed to bind to antibody for 5 minutes (association phase), and then the tip was moved to binding buffer (dissociation phase). The association and dissociation phases were fit to a 2:1 heterogenous ligand binding model to determine the binding rate constants. As shown in FIG. 21A and Table 17, 20E6_H0.2aL1_IgG1 bound with sub-nanomolar affinity to human LAP-TGFβ1, but not to human LAP-TGFβ2 (FIG. 21B) or LAP-TGFβ3 (FIG. 21C).
The binding of 20E6_H0.2aL1_IgG1 antibody and 20E6_H0.2aL1_hIgG4mut antibody to LAP-TGFβ1 of various species was examined by bio-layer interferometry using the method described in Example 12, except that the antibody-loaded tip was placed in a solution containing 0-24 nM of a fusion protein having a human IgG1 Fc domain fused to either mouse, rat, cynomolgus monkey, or human LAP-TGFβ1.

The target of assay [3] is T3, human LAP-TGFβ1 with a Y74T mutation on HT1080 cells (human, UniProt P01137 30-390).
T3 construct: also called HT1080-Y74T; open conformation
T3 sequence (P01137 other isoform, or with tags, fused parts or gaps Y74T Y74T): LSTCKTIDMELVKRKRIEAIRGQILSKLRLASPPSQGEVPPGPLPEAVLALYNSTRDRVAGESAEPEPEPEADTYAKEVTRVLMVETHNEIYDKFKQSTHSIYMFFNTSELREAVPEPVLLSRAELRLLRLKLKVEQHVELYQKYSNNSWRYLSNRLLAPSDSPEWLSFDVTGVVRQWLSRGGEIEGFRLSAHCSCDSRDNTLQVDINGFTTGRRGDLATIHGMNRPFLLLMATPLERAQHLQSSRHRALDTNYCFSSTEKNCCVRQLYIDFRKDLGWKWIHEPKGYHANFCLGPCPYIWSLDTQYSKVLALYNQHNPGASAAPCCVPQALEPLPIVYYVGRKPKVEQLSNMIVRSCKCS
Nature of the assay: flow cytometry, HT1080 cells; grey bar = no anti-LAP antibody. How it is done:
(§1) This Example describes the binding of anti-LAP antibodies to LAP-TGFβ isoforms and LAP-TGFβ variants. In addition to antibodies 28G11_hIgG1, 22F9_hIgG1, and 20E6_hIgG1, anti-LAP antibodies 17G8_hIgG1, 24E3_hIgG1, and 2C9_(hyb) were also tested in this experiment. Briefly, 4×10⁵ each of (a) HT1080 cells, (b) HT1080 cells overexpressing human LAP-TGFβ1, (c) HT1080 cells overexpressing human LAP-TGFβ2, (d) HT1080 cells overexpressing human LAP-TGFβ3, (e) HT1080 cells overexpressing murine LAP-TGFβ1, (f) P3U1 cells, (g) P3U1 cells overexpressing LAP-TGFβ1 and GARP, and (h) P3U1 cells overexpressing LAP-TGFβ1 and LRRC33 were cultured in 96-well plates. The plates were centrifuged for 5 min at 1,500 rpm, liquid was removed, and cells were resuspended with 200 μL FACS buffer. The plates were centrifuged again, diluted primary antibody was added to each well, and the plates were incubated on ice for 20 minutes, followed by centrifugation. The cells were resuspended in 200 μL FACS buffer, centrifuged again, and resuspended in 50 μL diluted secondary antibody (Alexa647-anti-Human IgG or APC-anti-Mouse IgG). The plates were incubated on ice for 20 minutes in the dark, washed twice with 200 μL FACS buffer, and cells from each well (in 200 μL FACS buffer) were read on the Attune NXT instrument.
(§2) Cells were processed for flow cytometry in the same manner described above for the isoform-specific binding experiments.
On the technique in general: In flow cytometry, cells or beads pass a laser one at a time.

The target in assay [4] is T4, human LAP-TGFβ1 with K27C and Y75C mutations on HT1080 cells (human, UniProt P01137 30-390).
T4 construct: also called closed conformation
T4 sequence (P01137 other isoform, or with tags, fused parts or gaps K27C Y75C K27C Y75C): as the sequence (P01137 other isoform, or with tags, fused parts or gaps Y74T Y74T) above, with K27C, T74Y, Y75C counted along it
The description is as above. As for the experimental part:
as §1, §2

In assay [5] the target is T5, human-chicken LAP-TGFβ1 chimera #2.3 on HT1080 cells (human/chicken chimera, UniProt P01137 30-390).
T5 construct: also called HT1080-ch2.3
T5 sequence (P01137 other isoform, or with tags, fused parts or gaps mutant): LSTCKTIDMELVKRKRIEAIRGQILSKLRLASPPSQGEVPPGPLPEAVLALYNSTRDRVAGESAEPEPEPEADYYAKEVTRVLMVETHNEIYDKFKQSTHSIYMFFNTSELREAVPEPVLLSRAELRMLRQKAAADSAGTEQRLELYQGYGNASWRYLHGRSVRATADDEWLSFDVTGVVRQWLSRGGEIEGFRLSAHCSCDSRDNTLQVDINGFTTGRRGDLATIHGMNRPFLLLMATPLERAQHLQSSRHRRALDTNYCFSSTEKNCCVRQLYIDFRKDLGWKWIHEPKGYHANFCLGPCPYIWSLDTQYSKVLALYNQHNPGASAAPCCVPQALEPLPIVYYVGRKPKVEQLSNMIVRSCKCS
The assay is described as above. As for the experimental part: as §1, §2

In assay [6] the target is T6, LAP-only variant of human TGFβ1 (empty LAP) on HT1080 cells (human, UniProt P01137 30-277).
T6 construct: LAP without the mature cytokine; also called HT1080-emptyLAP; LAP-only construct
T6 sequence (P01137 30-277, change not shown): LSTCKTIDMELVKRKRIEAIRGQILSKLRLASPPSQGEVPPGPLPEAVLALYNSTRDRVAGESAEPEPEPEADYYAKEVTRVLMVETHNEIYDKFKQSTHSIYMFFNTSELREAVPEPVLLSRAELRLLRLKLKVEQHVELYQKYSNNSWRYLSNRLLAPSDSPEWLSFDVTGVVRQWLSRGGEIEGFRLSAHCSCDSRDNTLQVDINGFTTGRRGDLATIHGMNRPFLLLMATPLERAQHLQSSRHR
The assay is described as above. As for the experimental part:
as §1, §2

Assay [7] addresses T7, human-chicken LAP-TGFβ1 chimera #2.2 on HT1080 cells (human/chicken chimera, UniProt P01137 30-390).
T7 construct: also called HT1080-ch2.2
Described as above. As for the experimental part: as §1, §2

T1 sequence (chain, as listed by the source limits assumed, chain 1 of 2): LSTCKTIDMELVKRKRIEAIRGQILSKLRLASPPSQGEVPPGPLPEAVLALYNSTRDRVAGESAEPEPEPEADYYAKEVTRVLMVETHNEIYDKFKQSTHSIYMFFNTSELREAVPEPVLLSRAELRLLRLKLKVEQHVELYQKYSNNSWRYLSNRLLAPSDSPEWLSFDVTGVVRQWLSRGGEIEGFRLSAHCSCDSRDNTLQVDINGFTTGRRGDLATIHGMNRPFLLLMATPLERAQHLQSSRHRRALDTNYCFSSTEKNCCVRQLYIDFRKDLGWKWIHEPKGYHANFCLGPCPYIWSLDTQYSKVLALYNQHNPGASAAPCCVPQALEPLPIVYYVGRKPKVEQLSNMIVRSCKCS
T1 sequence (Q14392 20-627 limits assumed, chain 2 of 2): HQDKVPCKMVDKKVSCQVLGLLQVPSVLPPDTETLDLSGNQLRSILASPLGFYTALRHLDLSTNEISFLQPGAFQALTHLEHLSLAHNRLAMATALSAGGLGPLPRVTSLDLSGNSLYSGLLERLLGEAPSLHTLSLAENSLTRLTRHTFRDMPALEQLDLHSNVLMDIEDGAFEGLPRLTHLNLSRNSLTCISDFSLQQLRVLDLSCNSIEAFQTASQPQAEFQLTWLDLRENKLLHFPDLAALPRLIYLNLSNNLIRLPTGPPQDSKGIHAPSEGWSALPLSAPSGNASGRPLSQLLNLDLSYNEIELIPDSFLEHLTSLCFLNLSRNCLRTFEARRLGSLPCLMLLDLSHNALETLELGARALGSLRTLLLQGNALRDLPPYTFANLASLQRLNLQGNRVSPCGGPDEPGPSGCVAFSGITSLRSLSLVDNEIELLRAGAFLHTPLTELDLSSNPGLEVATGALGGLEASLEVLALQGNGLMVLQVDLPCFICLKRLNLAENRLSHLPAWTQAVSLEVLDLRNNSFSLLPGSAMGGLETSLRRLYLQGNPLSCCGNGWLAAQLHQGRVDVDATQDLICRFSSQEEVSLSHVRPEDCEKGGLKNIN
T7 sequence (P01137 other isoform, or with tags, fused parts or gaps mutant): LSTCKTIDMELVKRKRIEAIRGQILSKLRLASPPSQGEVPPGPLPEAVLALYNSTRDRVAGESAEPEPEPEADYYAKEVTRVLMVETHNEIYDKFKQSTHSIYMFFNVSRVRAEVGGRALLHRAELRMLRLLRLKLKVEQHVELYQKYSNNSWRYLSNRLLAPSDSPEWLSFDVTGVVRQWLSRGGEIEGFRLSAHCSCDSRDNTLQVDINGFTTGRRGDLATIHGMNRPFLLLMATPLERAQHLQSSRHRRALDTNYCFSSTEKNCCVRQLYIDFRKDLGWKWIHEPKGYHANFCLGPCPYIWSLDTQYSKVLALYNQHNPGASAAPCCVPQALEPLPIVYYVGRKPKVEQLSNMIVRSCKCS

B1: 20E6_H0.2aL1_hIgG1 (antibody)
heavy: not shown
light: DIQMTQSPSSLSASVGDRVTITCRASQDITNYLNWYQQKPGKAVKLLIYYTSRLHSGVPSRFSGSGSGTDYTLTISSLQPEDFATYFCQQGDTLPWTFGQGTKLEIKRTVAAPSVFIFPPSDEQLKSGTASVVCLLNNFYPREAKVQWKVDNALQSGNSQESVTEQDSKDSTYSLSSTLTLSKADYEKHKVYACEVTHQGLSSPVTKSFNRGEC
notes: also called 20E6_H0.2aL1_IgG1; humanized 20E6
In assay [1], B1 showed an equilibrium dissociation constant (Kd) of 18.7 nM, an off-rate (koff) of 0.0518 s⁻¹ and a kon of 2.77e+06 M⁻¹ s⁻¹. In assay [2], this molecule displayed a dissociation constant Kd of 0.71 nM, a koff of 0.000728 s⁻¹ and a kon of 1.03e+06 M⁻¹ s⁻¹.

B2: 22F9_hIgG1 (antibody, V domains shown)
VH: QVQLQQPGAELVKPGASVKLSCKASGYTFTSYWMHWVKQRPGQGLEWIGMIHPNSGSTNYNEKFKSKATLTVDKSSSTAYMQLSSLTSEDSAVYYCAYYDYDGFFDVWGTGTTVTVSS
VL: DIVLTQSPASLDVSLGQRATISCRASKSVSTSGYSYMHWYQQKSGQPPKLLIYLASNLESGVPARFSGSGSGTHFTLNIHPVEEEDAATYYCQHSRELPYTFGGGTKLEIK
Turning to B2, the binding result is “no binding” in assay [3]; “binds” in assay [4]; “binds” in assay [5]; “no binding” in assay [6]; “no binding” in assay [7].

One may read the Kd as a measure of binding affinity in units of concentration. The koff is the rate constant with which the complex falls apart. As usually defined, the kon is the rate constant with which the complex forms.

(Values after patent US20220017612A1 (TILOS THERAPEUTICS, published 2022).)
